Source: US20090010935A1
Values belong to the substance of their own block, whether it stands above or below them.

Tests used:
[1] = target: human epidermal growth factor receptor (EGFR), full-length wild type (human) (UniProt P00533); test: cell-based or functional assay
[2] = target: ΔEGFR, extracellular-deleted mutant human EGFR (EGFRvIII) (human) (UniProt P00533); test: cell-based or functional assay

EGF-induced down-regulation of cell-surface EGFR in cells co-expressing EGFR and kinase deficient Neu (flow cytometry) [1]: 20 to 25%
Substance: N691 stop (cytoplasmic domain deleted rat cellular p185) (from UniProt P06494 23-690) (receptor)

EGF-induced down-regulation of cell-surface EGFR in cells co-expressing EGFR and kinase deficient Neu (flow cytometry) [1]: 20 to 25%
Substance: N757 (Nneu K757M, ATP-binding site mutant of rat cellular p185) (from UniProt P06494 23-1257) (receptor)

inhibition of anchorage-independent growth by T691 stop neu in U87MG parental cells lacking ΔEGFR [1]: 75.2%
radiation-induced apoptosis (DAPI), U87/T691 cells, 72 h after gamma-irradiation [1]: 20%
radiation-induced apoptosis (DAPI), U87/T691 cells, prolonged serum deprivation combined with radiation [1]: 33%
phosphorylation content of immunoprecipitated p155 ΔEGFR monomers (mAb Δ124 immunoprecipitation, PY-20 blot, scanning densitometry) [2]: 33.7%
Substance: T691 stop neu (ectodomain-derived, carboxyl-terminal deletion mutant of the rat p185neu oncogene) (from UniProt P06494 23-654) (receptor)

co-downregulation of cellular p185 with EGFR upon EGF treatment, M1 cells (flow cytometry) [1]: 20%
half life of WT cellular p185 after EGF treatment (pulse-chase, densitometry) [1]: 3 h
Substance: wildtype rat cellular p185 (Nneu) (from UniProt P06494 23-1257) (receptor)
